The values that follow come from the RNAGym collection of RNA variant scans (doi:10.1021/acssynbio.7b00057).

B1: Pistol ribozyme (parent)
chain: GGGUCGUUGUUCCAUAAUCGCGUGGAUAUGGCACGCAAGUUUCUACCGGGCACCGUAAAUGUCCGACUGGAGCCGUUCGGGCGGCUAUAAACAGACCUCAGGCCCGAAGCGUGGCGGCACCUGCCGCCGGUGGUAAAAAAGAUCGGAAGAGCACACGUCU

In this data set the parent is B1. The data set can be described thus: aptazyme ON/OFF ratio, guanine; higher = stronger switching; co-transcriptional cleavage with and without guanine.
GGGUCGUACGCACAUAAUCGCGUGGAUAUGGCACGCAAGUUUCUACCGGGCACCGUAAAUGUCCGACUGGAGCCGUUCGGGCGGCUAUAAACAGACCUCAGGCCCGAAGCGUGGCGGCACCUGCCGCCGGUGGUAAAAAAGAUCGGAAGAGCACACGUCU: the “aptazyme ON/OFF ratio” value turned out to be 1.18.

On to GGGUCGUACGCGCAUAAUCGCGUGGAUAUGGCACGCAAGUUUCUACCGGGCACCGUAAAUGUCCGACUGGAGCCGUUCGGGCGGCUAUAAACAGACCUCAGGCCCGAAGCGUGGCGGCACCUGCCGCCGGUGGUAAAAAAGAUCGGAAGAGCACACGUCU, for which the “aptazyme ON/OFF ratio” value was found to be 1.14. In the case of GGGUCGUACGCUCAUAAUCGCGUGGAUAUGGCACGCAAGUUUCUACCGGGCACCGUAAAUGUCCGACUGGAGCCGUUCGGGCGGCUAUAAACAGACCUCAGGCCCGAAGCGUGGCGGCACCUGCCGCCGGUGGUAAAAAAGAUCGGAAGAGCACACGUCU it was 1.05; in that of GGGUCGUACGAGGAUAAUCGCGUGGAUAUGGCACGCAAGUUUCUACCGGGCACCGUAAAUGUCCGACUGGAGCCGUUCGGGCGGCUAUAAACAGACCUCAGGCCCGAAGCGUGGCGGCACCUGCCGCCGGUGGUAAAAAAGAUCGGAAGAGCACACGUCU, 1.52. On to GGGUCGUACGAGAAUAAUCGCGUGGAUAUGGCACGCAAGUUUCUACCGGGCACCGUAAAUGUCCGACUGGAGCCGUUCGGGCGGCUAUAAACAGACCUCAGGCCCGAAGCGUGGCGGCACCUGCCGCCGGUGGUAAAAAAGAUCGGAAGAGCACACGUCU, for which the “aptazyme ON/OFF ratio” value is 1.26.

Consider GGGUCGUACGAGUAUAAUCGCGUGGAUAUGGCACGCAAGUUUCUACCGGGCACCGUAAAUGUCCGACUGGAGCCGUUCGGGCGGCUAUAAACAGACCUCAGGCCCGAAGCGUGGCGGCACCUGCCGCCGGUGGUAAAAAAGAUCGGAAGAGCACACGUCU, for which the “aptazyme ON/OFF ratio” value was 1.15.

On to GGGUCGUACGCUUAUAAUCGCGUGGAUAUGGCACGCAAGUUUCUACCGGGCACCGUAAAUGUCCGACUGGAGCCGUUCGGGCGGCUAUAAACAGACCUCAGGCCCGAAGCGUGGCGGCACCUGCCGCCGGUGGUAAAAAAGAUCGGAAGAGCACACGUCU, for which the “aptazyme ON/OFF ratio” value stood at 1.16.

As for GGGUCGUACGCUGAUAAUCGCGUGGAUAUGGCACGCAAGUUUCUACCGGGCACCGUAAAUGUCCGACUGGAGCCGUUCGGGCGGCUAUAAACAGACCUCAGGCCCGAAGCGUGGCGGCACCUGCCGCCGGUGGUAAAAAAGAUCGGAAGAGCACACGUCU, the “aptazyme ON/OFF ratio” value is 1.18. In the case of GGGUCGUACGCUAAUAAUCGCGUGGAUAUGGCACGCAAGUUUCUACCGGGCACCGUAAAUGUCCGACUGGAGCCGUUCGGGCGGCUAUAAACAGACCUCAGGCCCGAAGCGUGGCGGCACCUGCCGCCGGUGGUAAAAAAGAUCGGAAGAGCACACGUCU it was 1.13; in that of GGGUCGUACGCCAAUAAUCGCGUGGAUAUGGCACGCAAGUUUCUACCGGGCACCGUAAAUGUCCGACUGGAGCCGUUCGGGCGGCUAUAAACAGACCUCAGGCCCGAAGCGUGGCGGCACCUGCCGCCGGUGGUAAAAAAGAUCGGAAGAGCACACGUCU, 1.11. Turning to GGGUCGUACGCCGAUAAUCGCGUGGAUAUGGCACGCAAGUUUCUACCGGGCACCGUAAAUGUCCGACUGGAGCCGUUCGGGCGGCUAUAAACAGACCUCAGGCCCGAAGCGUGGCGGCACCUGCCGCCGGUGGUAAAAAAGAUCGGAAGAGCACACGUCU, the “aptazyme ON/OFF ratio” value came to 1.06. As to GGGUCGUACGCCUAUAAUCGCGUGGAUAUGGCACGCAAGUUUCUACCGGGCACCGUAAAUGUCCGACUGGAGCCGUUCGGGCGGCUAUAAACAGACCUCAGGCCCGAAGCGUGGCGGCACCUGCCGCCGGUGGUAAAAAAGAUCGGAAGAGCACACGUCU, the “aptazyme ON/OFF ratio” value came out at 1.03. Take GGGUCGUACGCAUAUAAUCGCGUGGAUAUGGCACGCAAGUUUCUACCGGGCACCGUAAAUGUCCGACUGGAGCCGUUCGGGCGGCUAUAAACAGACCUCAGGCCCGAAGCGUGGCGGCACCUGCCGCCGGUGGUAAAAAAGAUCGGAAGAGCACACGUCU: the “aptazyme ON/OFF ratio” value was 1.21.

For the variant GGGUCGUACGCAAAUAAUCGCGUGGAUAUGGCACGCAAGUUUCUACCGGGCACCGUAAAUGUCCGACUGGAGCCGUUCGGGCGGCUAUAAACAGACCUCAGGCCCGAAGCGUGGCGGCACCUGCCGCCGGUGGUAAAAAAGAUCGGAAGAGCACACGUCU, the “aptazyme ON/OFF ratio” value is 1.17.

With GGGUCGUACGCAGAUAAUCGCGUGGAUAUGGCACGCAAGUUUCUACCGGGCACCGUAAAUGUCCGACUGGAGCCGUUCGGGCGGCUAUAAACAGACCUCAGGCCCGAAGCGUGGCGGCACCUGCCGCCGGUGGUAAAAAAGAUCGGAAGAGCACACGUCU, the “aptazyme ON/OFF ratio” value is 1.12.

Consider GGGUCGUACGUCUAUAAUCGCGUGGAUAUGGCACGCAAGUUUCUACCGGGCACCGUAAAUGUCCGACUGGAGCCGUUCGGGCGGCUAUAAACAGACCUCAGGCCCGAAGCGUGGCGGCACCUGCCGCCGGUGGUAAAAAAGAUCGGAAGAGCACACGUCU, for which the “aptazyme ON/OFF ratio” value came out at 1.31. In the case of GGGUCGUACGGAAAUAAUCGCGUGGAUAUGGCACGCAAGUUUCUACCGGGCACCGUAAAUGUCCGACUGGAGCCGUUCGGGCGGCUAUAAACAGACCUCAGGCCCGAAGCGUGGCGGCACCUGCCGCCGGUGGUAAAAAAGAUCGGAAGAGCACACGUCU it was 1.13; in that of GGGUCGUACGGCCAUAAUCGCGUGGAUAUGGCACGCAAGUUUCUACCGGGCACCGUAAAUGUCCGACUGGAGCCGUUCGGGCGGCUAUAAACAGACCUCAGGCCCGAAGCGUGGCGGCACCUGCCGCCGGUGGUAAAAAAGAUCGGAAGAGCACACGUCU, 1.07. In the case of GGGUCGUACGCCCAUAAUCGCGUGGAUAUGGCACGCAAGUUUCUACCGGGCACCGUAAAUGUCCGACUGGAGCCGUUCGGGCGGCUAUAAACAGACCUCAGGCCCGAAGCGUGGCGGCACCUGCCGCCGGUGGUAAAAAAGAUCGGAAGAGCACACGUCU it was 1.05. Turning to GGGUCGUACGACCAUAAUCGCGUGGAUAUGGCACGCAAGUUUCUACCGGGCACCGUAAAUGUCCGACUGGAGCCGUUCGGGCGGCUAUAAACAGACCUCAGGCCCGAAGCGUGGCGGCACCUGCCGCCGGUGGUAAAAAAGAUCGGAAGAGCACACGUCU, the “aptazyme ON/OFF ratio” value came to 1.03.

As to GGGUCGUACGGACAUAAUCGCGUGGAUAUGGCACGCAAGUUUCUACCGGGCACCGUAAAUGUCCGACUGGAGCCGUUCGGGCGGCUAUAAACAGACCUCAGGCCCGAAGCGUGGCGGCACCUGCCGCCGGUGGUAAAAAAGAUCGGAAGAGCACACGUCU, the “aptazyme ON/OFF ratio” value is 1.14.

Regarding GGGUCGUACGCGAAUAAUCGCGUGGAUAUGGCACGCAAGUUUCUACCGGGCACCGUAAAUGUCCGACUGGAGCCGUUCGGGCGGCUAUAAACAGACCUCAGGCCCGAAGCGUGGCGGCACCUGCCGCCGGUGGUAAAAAAGAUCGGAAGAGCACACGUCU, the “aptazyme ON/OFF ratio” value amounted to 1.27. In the case of GGGUCGUACGCGUAUAAUCGCGUGGAUAUGGCACGCAAGUUUCUACCGGGCACCGUAAAUGUCCGACUGGAGCCGUUCGGGCGGCUAUAAACAGACCUCAGGCCCGAAGCGUGGCGGCACCUGCCGCCGGUGGUAAAAAAGAUCGGAAGAGCACACGUCU it was 1.19; in that of GGGUCGUACGCGGAUAAUCGCGUGGAUAUGGCACGCAAGUUUCUACCGGGCACCGUAAAUGUCCGACUGGAGCCGUUCGGGCGGCUAUAAACAGACCUCAGGCCCGAAGCGUGGCGGCACCUGCCGCCGGUGGUAAAAAAGAUCGGAAGAGCACACGUCU, 1.17; in that of GGGUCGUACGAUAAUAAUCGCGUGGAUAUGGCACGCAAGUUUCUACCGGGCACCGUAAAUGUCCGACUGGAGCCGUUCGGGCGGCUAUAAACAGACCUCAGGCCCGAAGCGUGGCGGCACCUGCCGCCGGUGGUAAAAAAGAUCGGAAGAGCACACGUCU, 1.12.

In the case of GGGUCGUACGAUUAUAAUCGCGUGGAUAUGGCACGCAAGUUUCUACCGGGCACCGUAAAUGUCCGACUGGAGCCGUUCGGGCGGCUAUAAACAGACCUCAGGCCCGAAGCGUGGCGGCACCUGCCGCCGGUGGUAAAAAAGAUCGGAAGAGCACACGUCU, the “aptazyme ON/OFF ratio” value was determined as 1.08.

GGGUCGUACGAUGAUAAUCGCGUGGAUAUGGCACGCAAGUUUCUACCGGGCACCGUAAAUGUCCGACUGGAGCCGUUCGGGCGGCUAUAAACAGACCUCAGGCCCGAAGCGUGGCGGCACCUGCCGCCGGUGGUAAAAAAGAUCGGAAGAGCACACGUCU: the “aptazyme ON/OFF ratio” value is 1.11. Consider GGGUCGUACGAAUAUAAUCGCGUGGAUAUGGCACGCAAGUUUCUACCGGGCACCGUAAAUGUCCGACUGGAGCCGUUCGGGCGGCUAUAAACAGACCUCAGGCCCGAAGCGUGGCGGCACCUGCCGCCGGUGGUAAAAAAGAUCGGAAGAGCACACGUCU, for which the “aptazyme ON/OFF ratio” value was 1.21.

As to GGGUCGUACGAAGAUAAUCGCGUGGAUAUGGCACGCAAGUUUCUACCGGGCACCGUAAAUGUCCGACUGGAGCCGUUCGGGCGGCUAUAAACAGACCUCAGGCCCGAAGCGUGGCGGCACCUGCCGCCGGUGGUAAAAAAGAUCGGAAGAGCACACGUCU, the “aptazyme ON/OFF ratio” value was found to be 1.16. In the case of GGGUCGUACGAAAAUAAUCGCGUGGAUAUGGCACGCAAGUUUCUACCGGGCACCGUAAAUGUCCGACUGGAGCCGUUCGGGCGGCUAUAAACAGACCUCAGGCCCGAAGCGUGGCGGCACCUGCCGCCGGUGGUAAAAAAGAUCGGAAGAGCACACGUCU it was 1.18. For GGGUCGUACGAACAUAAUCGCGUGGAUAUGGCACGCAAGUUUCUACCGGGCACCGUAAAUGUCCGACUGGAGCCGUUCGGGCGGCUAUAAACAGACCUCAGGCCCGAAGCGUGGCGGCACCUGCCGCCGGUGGUAAAAAAGAUCGGAAGAGCACACGUCU, the “aptazyme ON/OFF ratio” value came out at 1.31. Take GGGUCGUACGAUCAUAAUCGCGUGGAUAUGGCACGCAAGUUUCUACCGGGCACCGUAAAUGUCCGACUGGAGCCGUUCGGGCGGCUAUAAACAGACCUCAGGCCCGAAGCGUGGCGGCACCUGCCGCCGGUGGUAAAAAAGAUCGGAAGAGCACACGUCU: the “aptazyme ON/OFF ratio” value stood at 1.06. As for GGGUCGUACGAGCAUAAUCGCGUGGAUAUGGCACGCAAGUUUCUACCGGGCACCGUAAAUGUCCGACUGGAGCCGUUCGGGCGGCUAUAAACAGACCUCAGGCCCGAAGCGUGGCGGCACCUGCCGCCGGUGGUAAAAAAGAUCGGAAGAGCACACGUCU, the “aptazyme ON/OFF ratio” value was 1.28. In the case of GGGUCGUACGACGAUAAUCGCGUGGAUAUGGCACGCAAGUUUCUACCGGGCACCGUAAAUGUCCGACUGGAGCCGUUCGGGCGGCUAUAAACAGACCUCAGGCCCGAAGCGUGGCGGCACCUGCCGCCGGUGGUAAAAAAGAUCGGAAGAGCACACGUCU it was 1.06; in that of GGGUCGUACGACAAUAAUCGCGUGGAUAUGGCACGCAAGUUUCUACCGGGCACCGUAAAUGUCCGACUGGAGCCGUUCGGGCGGCUAUAAACAGACCUCAGGCCCGAAGCGUGGCGGCACCUGCCGCCGGUGGUAAAAAAGAUCGGAAGAGCACACGUCU, 1.03; in that of GGGUCGUACGACUAUAAUCGCGUGGAUAUGGCACGCAAGUUUCUACCGGGCACCGUAAAUGUCCGACUGGAGCCGUUCGGGCGGCUAUAAACAGACCUCAGGCCCGAAGCGUGGCGGCACCUGCCGCCGGUGGUAAAAAAGAUCGGAAGAGCACACGUCU, 1.02.
